First the molecules themselves.
B1: Atg9^core (Atg9^281–779), reconstituted in proteoliposomes (domain or fragment, S. cerevisiae, UniProt Q12142 281-779, looked up)
chain: EDRINTLSVKERALWKWANVENLDIFLQDVYNYYLGNGFYCIILEKILNICTLLFVVFVSTYMGHCVDYSKLPTSHRVSDIIIDKCYSNSITGFTKFFLWMFYFFVILKIVQLYFDVQKLSELQNFYKYLLNISDDELQTLPWQNVIQQLMYLKDQNAMTANVVEVKAKNRIDAHDVANRIMRRENYLIALYNSDILNLSLPIPLFRTNVLTKTLEWNINLCVMGFVFNESGFIKQSILKPSQREFTREELQKRFMLAGFLNIILAPFLVTYFVLLYFFRYFNEYKTSPGSIGARQYTPIAEWKFREYNELYHIFKKRISLSTTLANKYVDQFPKEKTNLFLKFVSFICGSFVAILAFLTVFDPENFLNFEITSDRSVIFYITILGAIWSVSRNTITQEYHVFDPEETLKELYEYTHYLPKEWEGRYHKEEIKLEFCKLYNLRIVILLRELTSLMITPFVLWFSLPSSAGRIVDFFRENSEYVDGLGYVCKYAMFNMKN
notes: Atg9, S. cerevisiae BY4741, conserved core region, residues 281–779; modified pET28a(+) vector; about 50% of the protein in the proteoliposomes has its cytoplasmic domains outside; liposomes of cholesterol, POPE, POPC, POPS, without PI; also called Atg9–PLs; Atg9-PL; source: E. coli Rosetta, solubilised in LDAO, purified (Ni-NTA, SEC), reconstituted in liposomes; not shown: His tag, C-terminal, …

Series [1] has as its target pentameric Atg1–kinase complex (Atg1^PC) (S. cerevisiae) (UniProt P53104). The series can be described thus: SEC-MALS; Atg1^PC injected at 3.4 mg ml^−1, 100 μl, Superose-6 10/300GL.
Series [2] concerns the target T1, Atg1^PC with myc-tagged Atg17 (S. cerevisiae, UniProt P53104 1-897; Q06628 1-738; Q06410 1-417; Q12421 1-196; Q12092 1-213, phosphothreonine at 226 (T226)).
T1 construct: Atg1, S. cerevisiae BY4741; Atg13, S. cerevisiae BY4741; Atg17, S. cerevisiae BY4741; Atg31, S. cerevisiae BY4741; Atg29, S. cerevisiae BY4741; the form detected by α-myc immunoblot in the co-floatation experiments; also called Atg17^TC combined with Atg1–Atg13; source: purified Atg1–Atg13 combined with purified Atg17^TC; not shown: myc, C-terminal, kept; copies: 2 + 2 + 2 + 2 + 2
The series can be described thus: co-floatation with proteoliposomes; Atg9 variant held in proteoliposomes (synthetic lipids without PI), partner in solution at 1:1, Nycodenz step gradient, 650,000g 2 h at 4 °C, 25 mM HEPES pH 7.0, 100 mM NaCl; top fraction read by SDS–PAGE or α-myc immunoblot. The conditions noted are these: both partners purified. (In western blotting, separated proteins are transferred to a membrane and probed.)

Series [3] has as its target T2, Atg17^TC (myc-tagged Atg17) with Atg13 alone (S. cerevisiae, UniProt Q06628 1-738; Q06410 1-417; Q12421 1-196; Q12092 1-213).
T2 construct: Atg13, S. cerevisiae BY4741; Atg17, S. cerevisiae BY4741; Atg31, S. cerevisiae BY4741; Atg29, S. cerevisiae BY4741; it was not isolated as such; also called Atg17^TC in the presence of Atg13; source: purified Atg13 combined with purified Atg17^TC; not shown: myc, C-terminal, kept; copies: + 2 + 2 + 2
The series is described as above. The following applies: both partners purified.

Series [4] deals with T3, Atg9^core (Atg9^281–779), reconstituted in proteoliposomes (S. cerevisiae) (UniProt Q12142).
T3 sequence: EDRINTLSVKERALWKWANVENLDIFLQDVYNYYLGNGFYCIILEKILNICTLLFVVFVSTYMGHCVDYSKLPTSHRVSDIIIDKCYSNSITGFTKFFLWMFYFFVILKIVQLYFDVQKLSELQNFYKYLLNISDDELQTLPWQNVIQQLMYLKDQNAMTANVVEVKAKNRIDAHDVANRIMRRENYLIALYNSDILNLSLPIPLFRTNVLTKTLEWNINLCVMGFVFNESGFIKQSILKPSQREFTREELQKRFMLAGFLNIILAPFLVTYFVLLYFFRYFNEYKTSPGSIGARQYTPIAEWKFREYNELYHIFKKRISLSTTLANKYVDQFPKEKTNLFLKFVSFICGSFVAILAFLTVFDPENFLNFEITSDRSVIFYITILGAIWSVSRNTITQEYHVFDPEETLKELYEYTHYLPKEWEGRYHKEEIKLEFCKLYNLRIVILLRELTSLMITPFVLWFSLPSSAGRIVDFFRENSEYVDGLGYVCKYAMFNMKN

Series [5] concerns the molecule itself. The series can be described thus: dynamic light scattering; Stokes radii (RH) of the purified proteins and complexes in solution.
Series [6] concerns the target T4, Atg1–Atg13 subcomplex (S. cerevisiae, UniProt P53104 1-897; Q06628 1-738, phosphothreonine at 226 (T226)).
T4 construct: Atg1, S. cerevisiae BY4741; Atg13, S. cerevisiae BY4741; source: assembled from purified subunits (Atg1 from High Five cells, Atg13 from E. coli Rosetta), gel filtration on Superose 6
The series can be described thus: SEC; complexes assembled from purified subunits or subcomplexes, 30 min at room temperature, then gel filtration on Superose 6. The following applies: both partners purified. A general note: SEC sorts molecules by how far they enter the pores of the column.

Series [7] has as its target B1. Kind of series: co-floatation with proteoliposomes; Atg9 variant held in proteoliposomes (synthetic lipids without PI), partner in solution at 1:1, Nycodenz step gradient, 650,000g 2 h at 4 °C, 25 mM HEPES pH 7.0, 100 mM NaCl; top fraction read by SDS–PAGE or α-myc immunoblot. The conditions noted are these: both partners purified.
Series [8] concerns the molecule itself. The series can be described thus: not stated; recombinantly expressed Atg17 fragment; how the dimer was shown is not told.

For orientation: stoichiometry N means the number of molecules, sites or subunits per partner or assembly.

T4 sequence (P53104 whole entry, chain 1 of 2): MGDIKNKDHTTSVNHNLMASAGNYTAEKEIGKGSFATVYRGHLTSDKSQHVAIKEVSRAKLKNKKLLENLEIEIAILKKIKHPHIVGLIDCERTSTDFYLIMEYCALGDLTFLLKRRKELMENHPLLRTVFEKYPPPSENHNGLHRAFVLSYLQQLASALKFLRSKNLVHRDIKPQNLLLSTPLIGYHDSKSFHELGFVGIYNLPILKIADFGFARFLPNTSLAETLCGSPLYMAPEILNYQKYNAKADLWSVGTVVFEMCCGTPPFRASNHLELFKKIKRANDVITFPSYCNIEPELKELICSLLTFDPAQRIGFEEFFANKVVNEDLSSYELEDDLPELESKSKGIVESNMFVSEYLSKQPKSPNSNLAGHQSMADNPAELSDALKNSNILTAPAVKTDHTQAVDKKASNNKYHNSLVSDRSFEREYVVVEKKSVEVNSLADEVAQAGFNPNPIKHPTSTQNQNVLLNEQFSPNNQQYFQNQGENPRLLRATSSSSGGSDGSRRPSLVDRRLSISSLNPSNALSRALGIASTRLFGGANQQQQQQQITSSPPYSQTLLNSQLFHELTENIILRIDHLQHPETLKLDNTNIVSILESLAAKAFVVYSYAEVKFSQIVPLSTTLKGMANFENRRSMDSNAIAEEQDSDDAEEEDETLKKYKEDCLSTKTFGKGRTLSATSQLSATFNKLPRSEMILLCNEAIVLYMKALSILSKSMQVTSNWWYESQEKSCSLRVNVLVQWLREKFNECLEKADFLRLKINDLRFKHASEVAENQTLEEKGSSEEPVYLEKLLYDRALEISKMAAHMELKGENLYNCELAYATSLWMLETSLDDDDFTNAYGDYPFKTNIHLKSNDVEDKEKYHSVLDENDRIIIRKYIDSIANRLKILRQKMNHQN
T4 sequence (Q06628 whole entry, chain 2 of 2): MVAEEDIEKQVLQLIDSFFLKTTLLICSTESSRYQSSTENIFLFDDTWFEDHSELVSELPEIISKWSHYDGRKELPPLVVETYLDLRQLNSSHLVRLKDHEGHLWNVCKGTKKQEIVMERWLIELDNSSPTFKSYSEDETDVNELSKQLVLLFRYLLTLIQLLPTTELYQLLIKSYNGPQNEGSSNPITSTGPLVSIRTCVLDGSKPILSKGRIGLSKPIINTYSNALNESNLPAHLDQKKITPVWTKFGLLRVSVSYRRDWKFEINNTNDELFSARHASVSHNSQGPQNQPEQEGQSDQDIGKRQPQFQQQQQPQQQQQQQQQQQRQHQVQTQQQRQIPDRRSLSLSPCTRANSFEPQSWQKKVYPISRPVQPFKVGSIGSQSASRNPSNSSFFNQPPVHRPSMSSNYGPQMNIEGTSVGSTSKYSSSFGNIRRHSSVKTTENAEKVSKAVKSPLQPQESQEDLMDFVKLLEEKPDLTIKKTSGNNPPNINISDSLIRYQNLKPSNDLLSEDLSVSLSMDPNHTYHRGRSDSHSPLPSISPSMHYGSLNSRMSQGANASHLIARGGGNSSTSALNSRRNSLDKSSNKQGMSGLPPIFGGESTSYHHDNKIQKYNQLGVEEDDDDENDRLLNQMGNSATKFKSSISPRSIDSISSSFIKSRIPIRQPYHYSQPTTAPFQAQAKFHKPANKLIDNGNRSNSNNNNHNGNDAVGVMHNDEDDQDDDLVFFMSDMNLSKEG
T2 sequence (Q06628 whole entry, one chain of several): as the sequence (Q06628 whole entry, chain 2 of 2) above
T1 sequence (P53104 whole entry, chain 1 of 2): as the sequence (P53104 whole entry, chain 1 of 2) above
T1 sequence (Q06628 whole entry, chain 2 of 2): as the sequence (Q06628 whole entry, chain 2 of 2) above

“pentameric Atg1–kinase complex (Atg1^PC), P53104 1-897; Q06628 1-738; Q06410 1-417; Q12421 1-196; Q12092 1-213”: in series [1], the stoichiometry N came out at 2.

As for B1, the binding result in series [2] and in series [3] was “binds” each time.

B2: Atg17–Atg31–Atg29 trimeric complex (Atg17^TC) (complex, S. cerevisiae)
chain 1: MNEADVTKFVNNARKTLTDAQLLCSSANLRIVDIKKKLSSWQLSISKLNFLIVGLRQQGKFLYTILKEGIGTKLIQKQWNQAVLVVLVDEMKYWQYEITSKVQRLDGIVNELSISEKDDTDPSKLGDYISRDNVNLLNDKLKEVPVIERQIENIKLQYENMVRKVNKELIDTKLTDVTQKFQSKFGIDNLMETNVAEQFSRELTDLEKDLAEIMNSLTQHFDKTLLLQDKKIDNDEREELFKVVQGDDKELYNIFKTLHEVIDDVDKTILNLGQFLQAKIKEKTELHSEVSEIINDFNRNLEYLLIFKDISNLIDSFKNSCTQDIQTTKELCEFYDNFEESYGNLVLEAKRRKDVANRMKTILKDCEKQLQNLDAQDQEERQNFIAENGTYLPETIWPGKIDDFSSLYTLNYNVKNP
chain 2: MNVTVTVYDKNVKYRLEENIKNNKGPSNDDQPAYNNESKSTDGSDYAMFPTNIKYIFEDNNDELVDSSDAALTAGIDKVGDELENVIIVQLDESGSLEDITLISDQYELLSHRTNSLSLEENQMRTLSSHGDDKSNDEEEELSVDSDRFRVDSDIELDVISQFCDLSPFLRDLSLNDLIKLYVTQNEQLQMLSNSV
chain 3: MIMNSTNTVVYIKVKGRRPQGFLDPPKFEWNGTKERQLWTMVSNLNYSQDQIDWQNLSKIFETPEFFLKKRTYKLFAEHLELLQLQLEKKRDLEKYSNDQVNEGMSDLIHKYTPTLQNDNLLNVSASPLTTERQDSEEVETEVTNEALQHLQTSKILNIHKKTSDSENKPNDKLDKDGINKEMECGSSDDDLSSSLSVSKSALEEALMDRLQF
notes: Atg17, S. cerevisiae BY4741; Atg31, S. cerevisiae BY4741; Atg29, S. cerevisiae BY4741; dimer of trimers through Atg17; also produced by combining Atg17 with co-expressed Atg31–Atg29; also called Atg17-Atg31–Atg29 complex; source: E. coli Rosetta, co-expressed from pST39, purified (Ni-NTA, SEC); not shown: His6, N-terminal, cleaved; copies: 2 + 2 + 2
With B2, in series [4], the RH of Atg9–PLs prepared in the presence of Atg17^TC, by DLS (vesicle tethering) stood at 72 nm. For the same molecule, the “stoichiometry N” value in series [5] turned out to be 2. Moreover, the binding result in series [6] was “binds”.

B3: myc-tagged Atg17 (Atg17^myc), recombinant (natural protein, S. cerevisiae, UniProt Q06410 1-417, looked up)
chain: MNEADVTKFVNNARKTLTDAQLLCSSANLRIVDIKKKLSSWQLSISKLNFLIVGLRQQGKFLYTILKEGIGTKLIQKQWNQAVLVVLVDEMKYWQYEITSKVQRLDGIVNELSISEKDDTDPSKLGDYISRDNVNLLNDKLKEVPVIERQIENIKLQYENMVRKVNKELIDTKLTDVTQKFQSKFGIDNLMETNVAEQFSRELTDLEKDLAEIMNSLTQHFDKTLLLQDKKIDNDEREELFKVVQGDDKELYNIFKTLHEVIDDVDKTILNLGQFLQAKIKEKTELHSEVSEIINDFNRNLEYLLIFKDISNLIDSFKNSCTQDIQTTKELCEFYDNFEESYGNLVLEAKRRKDVANRMKTILKDCEKQLQNLDAQDQEERQNFIAENGTYLPETIWPGKIDDFSSLYTLNYNVKNP
notes: Atg17, S. cerevisiae BY4741, open reading frame from genomic DNA; expressed from pST39 with a myc-tag at the C-terminus of Atg17; also called recombinant myc-tagged Atg17; source: E. coli Rosetta, purified; not shown: myc, C-terminal, kept
On to B3, for which, in series [7], the binding result is reported as “binds”.

B4: Atg17^1–354-Atg31–Atg29 (Atg17^monoTC) (complex, S. cerevisiae)
chain 1: MNEADVTKFVNNARKTLTDAQLLCSSANLRIVDIKKKLSSWQLSISKLNFLIVGLRQQGKFLYTILKEGIGTKLIQKQWNQAVLVVLVDEMKYWQYEITSKVQRLDGIVNELSISEKDDTDPSKLGDYISRDNVNLLNDKLKEVPVIERQIENIKLQYENMVRKVNKELIDTKLTDVTQKFQSKFGIDNLMETNVAEQFSRELTDLEKDLAEIMNSLTQHFDKTLLLQDKKIDNDEREELFKVVQGDDKELYNIFKTLHEVIDDVDKTILNLGQFLQAKIKEKTELHSEVSEIINDFNRNLEYLLIFKDISNLIDSFKNSCTQDIQTTKELCEFYDNFEESYGNLVLEAKRRKD
chain 2: MNVTVTVYDKNVKYRLEENIKNNKGPSNDDQPAYNNESKSTDGSDYAMFPTNIKYIFEDNNDELVDSSDAALTAGIDKVGDELENVIIVQLDESGSLEDITLISDQYELLSHRTNSLSLEENQMRTLSSHGDDKSNDEEEELSVDSDRFRVDSDIELDVISQFCDLSPFLRDLSLNDLIKLYVTQNEQLQMLSNSV
chain 3: MIMNSTNTVVYIKVKGRRPQGFLDPPKFEWNGTKERQLWTMVSNLNYSQDQIDWQNLSKIFETPEFFLKKRTYKLFAEHLELLQLQLEKKRDLEKYSNDQVNEGMSDLIHKYTPTLQNDNLLNVSASPLTTERQDSEEVETEVTNEALQHLQTSKILNIHKKTSDSENKPNDKLDKDGINKEMECGSSDDDLSSSLSVSKSALEEALMDRLQF
notes: Atg31, S. cerevisiae BY4741; Atg29, S. cerevisiae BY4741; source: E. coli Rosetta, co-expressed from pST39, purified (Ni-NTA, SEC); not shown: His6, N-terminal, cleaved; copies: + +
Turning to B4, the binding result in series [6] is given as “binds”.

B5: thioredoxin-tagged Atg17^354–417 (domain or fragment, S. cerevisiae, UniProt Q06410 354-417, looked up)
chain: DVANRMKTILKDCEKQLQNLDAQDQEERQNFIAENGTYLPETIWPGKIDDFSSLYTLNYNVKNP
notes: also called dimerization domain; source: E. coli Rosetta, purified
Regarding B5, the binding result in series [7] was “binds”.

B6: thioredoxin-tagged Atg17^235–417 (domain or fragment, S. cerevisiae, UniProt Q06410 235-417, looked up)
chain: DEREELFKVVQGDDKELYNIFKTLHEVIDDVDKTILNLGQFLQAKIKEKTELHSEVSEIINDFNRNLEYLLIFKDISNLIDSFKNSCTQDIQTTKELCEFYDNFEESYGNLVLEAKRRKDVANRMKTILKDCEKQLQNLDAQDQEERQNFIAENGTYLPETIWPGKIDDFSSLYTLNYNVKNP
notes: source: E. coli Rosetta, purified
On to B6, for which the “stoichiometry N” value in series [8] was 2. Moreover, in series [7], the binding result is “binds”.

B7: thioredoxin-tagged Atg17^235–354 (domain or fragment, S. cerevisiae, UniProt Q06410 235-354, looked up)
chain: DEREELFKVVQGDDKELYNIFKTLHEVIDDVDKTILNLGQFLQAKIKEKTELHSEVSEIINDFNRNLEYLLIFKDISNLIDSFKNSCTQDIQTTKELCEFYDNFEESYGNLVLEAKRRKD
notes: as for B6
Take B7: in series [7], the binding result is recorded as “binds”.

The record behind these values is PMC4729957, “The Atg1–kinase complex tethers Atg9-vesicles to initiate autophagy” (Nature Communications, 2016).
